Where two headings read alike, the source gives them in different places. Values belong to the molecule of their own block, whether it stands above or below them.
Assay: Estimation of binding affinity by Octet
Description: Murine R24 (mR24) is a murine antibody that binds GD3 (SEQ ID NOs: 17 and 19). To minimize the risk of immunogenicity, an attempt was made to humanize mR24 for further therapeutic development. An earlier attempt to humanize mR24 is disclosed in WO2008/101234. The CDRs of murine antibody mR24 were identified using Kabat. Humanization of mR24 was first attempted using the semi-empirical framework shuffle approach. In this approach, human germline frameworks with a high degree of homology with mR24 sequences, VL frameworks V1-12 and V3-11 and VH framework V3-7, were selected. The selected frameworks were then used as the acceptor framework for mR24 without any backmutations in the framework region. The CDRs of mR24 were then inserted into the acceptor frameworks, and antibody proteins were generated and assessed for their expression yield, purification properties, and GD3 target binding activity. After screening, two advanced humanization variants with high GD3 binding activity, overall expression yields, and stability, hAb 21 (SEQ ID NOs: 30 and 31, VL framework V3-11 and VH framework V3-7) and hAb3 (SEQ ID NOs: 32 and 33, VL framework V1-12 and VH framework V3-7), were further evaluated for their aggregation level after purification.

[1] = antibody concentrated (Ab 3 21.2 mg/ml, hAb 21 27.8 mg/ml), in Tier-1 buffer

Kd: 9.02 nM
Kdis: 0.00596 s⁻¹
Kon: 1.33e+06 M⁻¹ s⁻¹
B1: KM871: chR24 (hAb.51) chimeric version (hIgG1, kappa) of KM641 (SEQ ID NOs: 28 and 29) (antibody, V domains shown)
VH: EVTLVESGGDFVKPGGSLKVSCAASGFAFSHYAMSWVRQTPAKRLEWVAYISSGGSGTYYSDSVKGRFTISRDNAKNTLYLQMRSLRSEDSAMYFCTRVKLGTYYFDSWGQGTTLTVSS
VL: DIQMTQTASSLPASLGDRVTISCSASQDISNYLNWYQQKPDGTVKLLIFYSSNLHSGVPSRFSGGGSGTDYSLTISNLEPEDIATYFCHQYSKLPWTFGGGTKLEIK

Kd [1]: 59.7 nM
Kdis [1]: 0.00278 s⁻¹
Kon [1]: 75400 M⁻¹ s⁻¹
Kd (antibody dialyzed in PBS): 55.8 nM
Kdis (antibody dialyzed in PBS): 0.00144 s⁻¹
Kon (antibody dialyzed in PBS): 37700 M⁻¹ s⁻¹
B2: hAb 3: fully humanized mR24 based on framework shuffle (SEQ ID NOs: 32 and 33, VL framework V1-12 and VH framework V3-7) (antibody, V domains shown)
VH: EVQLVESGGGLVQPGGSLRLSCAASGFTFSNFGMHWVRQAPGKGLEWVAYISSGGSSINYADTVKGRFTISRDNAKNSLYLQMNSLRAEDTAVYYCARGGTGTRSLYYFDYWGQGTLVTVSS
VL: DIQMTQSPSSVSASVGDRVTITCRASQDIGNFLNWYQQKPGKAPKLLIYYTSRLQSGVPSRFSGSGSGTDFTLTISSLQPEDFATYYCQQGKTLPYTFGGGTKVEIK

Kd [1]: 31.1 nM
Kdis [1]: 0.00111 s⁻¹
Kon [1]: 44600 M⁻¹ s⁻¹
Kd (antibody dialyzed in PBS): 28.9 nM
Kdis (antibody dialyzed in PBS): 0.00136 s⁻¹
Kon (antibody dialyzed in PBS): 59700 M⁻¹ s⁻¹
B3: hAb 21: fully humanized mR24 based on framework shuffle (SEQ ID NOs: 30 and 31, VL framework V3-11 and VH framework V3-7) (antibody, V domains shown)
VH: B2 VH
VL: EIVLTQSPATLSLSPGERATLSCRASQDIGNFLNWYQQKPGQAPRLLIYYTSRLQSGIPARFSGSGSGTDFTLTISSLEPEDFAVYYCQQGKTLPYTFGGGTKVEIK

Reference: patent US20190048073A1, “ANTI-GD3 ANTIBODIES AND ANTIBODY-DRUG CONJUGATES” (Pfizer Inc., priority 2017, published 2019)
